This note sets out measurements from PMC4503349.

This experiment concerns the target Recombinant human calcineurin, comprising CnAα and CnB subunits (human) (UniProt Q08209).

For “calmodulin (from UniProt P0DP23 1-149) (natural protein)”, the CaN phosphatase activity (malachite green, RIIP substrate) in a Ca2+/CM cross-titration; CaN:CM ratio that gives 50% activation at 500 μM Ca2+ (molar ratio (CaN:CM)) is 1.
